Test results: patent US20220010021A1 (Sanofi, published 2022)

Biological target: human FGFR1c + KLB receptor complex on HEK293 iLite FGF21 reporter cells (human, UniProt P11362 22-822; Q86Z14 1-1044)
Assay: cell-based or functional assay

Chain of human FGFR1c + KLB receptor complex on HEK293 iLite FGF21 reporter cells (P11362 22-822, chain 1 of 2): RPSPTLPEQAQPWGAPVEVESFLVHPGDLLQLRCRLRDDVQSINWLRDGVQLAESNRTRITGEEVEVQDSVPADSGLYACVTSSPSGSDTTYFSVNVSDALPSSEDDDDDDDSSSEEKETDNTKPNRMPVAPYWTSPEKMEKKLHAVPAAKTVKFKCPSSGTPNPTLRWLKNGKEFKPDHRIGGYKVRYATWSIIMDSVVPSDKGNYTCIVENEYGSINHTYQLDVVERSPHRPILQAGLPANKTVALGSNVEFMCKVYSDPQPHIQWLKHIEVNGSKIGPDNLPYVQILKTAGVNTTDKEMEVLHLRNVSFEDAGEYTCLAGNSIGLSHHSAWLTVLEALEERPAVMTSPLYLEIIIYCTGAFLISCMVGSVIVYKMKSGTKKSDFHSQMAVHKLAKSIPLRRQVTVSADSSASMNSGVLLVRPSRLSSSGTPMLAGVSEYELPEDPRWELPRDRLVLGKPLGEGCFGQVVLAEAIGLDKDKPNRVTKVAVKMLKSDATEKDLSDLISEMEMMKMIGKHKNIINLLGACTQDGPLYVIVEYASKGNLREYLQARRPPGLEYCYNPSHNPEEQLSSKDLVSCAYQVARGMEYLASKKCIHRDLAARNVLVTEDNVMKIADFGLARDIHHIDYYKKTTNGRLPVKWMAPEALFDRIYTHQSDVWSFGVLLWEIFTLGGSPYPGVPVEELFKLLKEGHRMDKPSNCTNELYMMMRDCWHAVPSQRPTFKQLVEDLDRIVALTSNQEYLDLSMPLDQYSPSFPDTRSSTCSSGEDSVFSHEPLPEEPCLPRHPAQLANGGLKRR
Chain of human FGFR1c + KLB receptor complex on HEK293 iLite FGF21 reporter cells (Q86Z14 whole entry, chain 2 of 2): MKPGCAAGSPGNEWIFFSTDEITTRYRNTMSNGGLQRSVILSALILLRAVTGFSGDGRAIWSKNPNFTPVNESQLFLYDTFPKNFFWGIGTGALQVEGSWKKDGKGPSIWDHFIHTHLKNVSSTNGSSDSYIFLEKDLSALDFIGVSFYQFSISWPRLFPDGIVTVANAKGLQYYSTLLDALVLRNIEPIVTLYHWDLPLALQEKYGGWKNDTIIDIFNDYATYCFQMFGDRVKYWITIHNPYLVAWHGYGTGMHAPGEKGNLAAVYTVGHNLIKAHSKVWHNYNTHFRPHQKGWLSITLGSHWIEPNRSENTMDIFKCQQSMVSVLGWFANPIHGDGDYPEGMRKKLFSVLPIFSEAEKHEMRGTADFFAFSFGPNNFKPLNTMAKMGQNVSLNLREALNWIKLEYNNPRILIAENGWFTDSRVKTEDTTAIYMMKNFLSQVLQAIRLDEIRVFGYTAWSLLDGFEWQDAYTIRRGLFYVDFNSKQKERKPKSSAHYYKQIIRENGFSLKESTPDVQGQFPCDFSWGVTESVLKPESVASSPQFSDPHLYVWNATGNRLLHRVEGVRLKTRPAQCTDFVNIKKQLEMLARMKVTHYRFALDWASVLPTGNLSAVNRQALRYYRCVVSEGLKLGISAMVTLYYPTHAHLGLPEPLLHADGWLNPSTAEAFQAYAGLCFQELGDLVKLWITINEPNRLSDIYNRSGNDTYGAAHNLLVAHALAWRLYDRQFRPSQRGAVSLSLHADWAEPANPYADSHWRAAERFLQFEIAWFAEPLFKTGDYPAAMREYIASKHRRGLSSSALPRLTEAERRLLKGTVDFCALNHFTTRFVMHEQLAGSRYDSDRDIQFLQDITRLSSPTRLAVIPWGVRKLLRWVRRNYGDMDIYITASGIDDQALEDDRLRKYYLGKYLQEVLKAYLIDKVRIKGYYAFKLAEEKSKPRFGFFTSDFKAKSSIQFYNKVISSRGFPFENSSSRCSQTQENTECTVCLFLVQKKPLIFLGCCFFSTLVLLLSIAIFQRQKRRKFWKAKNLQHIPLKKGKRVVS

| Binder | EC50 [nmol/L] | Emax [%] |
| --- | --- | --- |
| Ab0342 (antibody, IgG4, V domains shown) VH: QVTLKESGPVLVKPTETLTLTCTVSGFSLNNARVGVSWIRQPPGKALEWLAHIFSNDEKSYSTSLKSRLTISKDTSKSQVVLTMTNMDPVDTATYYCARSVVTGGYYYEGMDVWGQGTTVTVSS VL: SYVLTQPPSVSVAPGQTARITCGGSNIGSESVHWYQQKPGQAPVLVVYAASDRPSGIPERFSGSNSGNTATLTISRVEAGDEADYYCQVWAGESDHVVFGGGTKLTVLG | 0.34 | 775 |
| Ab0343 (antibody, IgG4, V domains shown) VH: QVTLKESGPVLVKPTETLTLTCTVSGFSLNNARVGVSWIRQPPGKALEWLAHIFSNDEKSYSTSLKSRLTISKDTSKSQVVLTMTNMDPVDTATYYCARSVVTGGYYYEGMDVWGQGTTVTVSS VL: SYVLTQPPSVSVAPGQTARITCGGSNIGSESVHWYQQKPGQAPVLVVYAASDRPSGIPERFSGSNSGNTATLTISRVEAGDEADYYCQVWAGSSDHVVFGGGTKLTVLG | 1.37 | 482 |
| Ab0346 (antibody, IgG4, V domains shown) VH: QVTLKESGPVLVKPTETLTLTCTVSGFSLNNARVGVSWIRQPPGKALEWLAHIFSNDEKSYSTSLKSRLTISKDTSKSQVVLTMTNMDPVDTATYYCARSVVTGGYYYEGMDVWGQGTTVTVSS VL: SYVLTQPPSVSVAPGQTARITCGGSNIGSESVHWYQQKPGQAPVLVVYAHSDRPSGIPERFSGSNSGNTATLTISRVEAGDEADYYCQVWAGSSDHVVFGGGTKLTVLG | 2.25 | 532 |
| Ab0347 (antibody, IgG4, V domains shown) VH: QVTLKESGPVLVKPTETLTLTCTVSGFSLNNARVGVSWIRQPPGKALEWLAHIFSNDEKSYSTSLKSRLTISKDTSKSQVVLTMTNMDPVDTATYYCARSVVTGGYYYEGMDVWGQGTTVTVSS VL: SYVLTQPPSVSVAPGQTARITCGGSNIGSESVHWYQQKPGQAPVLVVYASSDRPSGIPERFSGSNSGNTATLTISRVEAGDEADYYCQVWAGSSDHVVFGGGTKLTVLG | 0.24 | 695 |
| Ab0348 (antibody, IgG4, V domains shown) VH: QVTLKESGPVLVKPTETLTLTCTVSGFSLNNARVGVSWIRQPPGKALEWLAHIFSNDEKSYSTSLKSRLTISKDTSKSQVVLTMTNMDPVDTATYYCARSVVTGGYYYEGMDVWGQGTTVTVSS VL: SYVLTQPPSVSVAPGQTARITCGGSNIGSESVHWYQQKPGQAPVLVVYEESDRPSGIPERFSGSNSGNTATLTISRVEAGDEADYYCQVWTGESDHVVFGGGTKLTVLG | 0.53 | 641 |
| Ab0349 (antibody, IgG4, V domains shown) VH: QVTLKESGPVLVKPTETLTLTCTVSGFSLNNARVGVSWIRQPPGKALEWLAHIFSNDEKSYSTSLKSRLTISKDTSKSQVVLTMTNMDPVDTATYYCARSVVTGGYYYEGMDVWGQGTTVTVSS VL: SYVLTQPPSVSVAPGQTARITCGGSNIGSESVHWYQQKPGQAPVLVVYEESDRPSGIPERFSGSNSGNTATLTISRVEAGDEADYYCQVWTGSSDHVVFGGGTKLTVLG | 10.7 | 511 |
| Ab0356 (antibody, IgG4, V domains shown) VH: QVTLKESGPVLVKPTETLTLTCTVSGFSLNNARVGVSWIRQPPGKALEWLAHIFSNDEKSYSTSLKSRLTISKDTSKSQVVLTMTNMDPVDTATYYCARSVVTGGYYYEGMDVWGQGTTVTVSS VL: SYVLTQPPSVSVAPGQTARITCGGSNIGSESVHWYQQKPGQAPVLVVYEASDRPSGIPERFSGSNSGNTATLTISRVEAGDEADYYCQVWAGSSDHVVFGGGTKLTVLG | 5.35 | 620 |
| Ab0359 (antibody, IgG4, V domains shown) VH: QVTLKESGPVLVKPTETLTLTCTVSGFSLNNARVGVSWIRQPPGKALEWLAHIFSNDEKSYSTSLKSRLTISKDTSKSQVVLTMTNMDPVDTATYYCARSVVTGGYYYEGMDVWGQGTTVTVSS VL: SYVLTQPPSVSVAPGQTARITCGGSNIGSESVHWYQQKPGQAPVLVVYEHSDRPSGIPERFSGSNSGNTATLTISRVEAGDEADYYCQVWAGSSDHVVFGGGTKLTVLG | 2.53 | 550 |
| Ab0362 (antibody, IgG4, V domains shown) VH: QVTLKESGPVLVKPTETLTLTCTVSGFSLNNARVGVSWIRQPPGKALEWLAHIFSNDEKSYSTSLKSRLTISKDTSKSQVVLTMTNMDPVDTATYYCARSVVTGGYYYEGMDVWGQGTTVTVSS VL: SYVLTQPPSVSVAPGQTARITCGGSNIGSESVHWYQQKPGQAPVLVVYTESDRPSGIPERFSGSNSGNTATLTISRVEAGDEADYYCQVWAGSSDHVVFGGGTKLTVLG | 11.6 | 662 |
| Ab0363 (antibody, IgG4, V domains shown) VH: QVTLKESGPVLVKPTETLTLTCTVSGFSLNNARVGVSWIRQPPGKALEWLAHIFSNDEKSYSTSLKSRLTISKDTSKSQVVLTMTNMDPVDTATYYCARSVVTGGYYYEGMDVWGQGTTVTVSS VL: SYVLTQPPSVSVAPGQTARITCGGANIGSESVHWYQQKPGQAPVLVVYSASDRPSGIPERFSGSNSGNTATLTISRVEAGDEADYYCQVWAGASDHVVFGGGTKLTVLG | 0.48 | 736 |
| Ab0365 (antibody, IgG4, V domains shown) VH: QVTLKESGPVLVKPTETLTLTCTVSGFSLNNARVGVSWIRQPPGKALEWLAHIFSNDEKSYSTSLKSRLTISKDTSKSQVVLTMTNMDPVDTATYYCARSVVTGGYYYEGMDVWGQGTTVTVSS VL: SYVLTQPPSVSVAPGQTARITCGGANIGSESVHWYQQKPGQAPVLVVYTESDRPSGIPERFSGSNSGNTATLTISRVEAGDEADYYCQVWAGSSDHVVFGGGTKLTVLG | 0.85 | 583 |
| Ab0428 (antibody, human IgG1, lambda) heavy: not shown light: SYVLTQPPSVSVAPGQTARITCGGSNIGSESVHWYQQKPGQAPVLVVYSESDRPSGIPERFSGSNSGNTATLTISRVEAGDEADYYCQVWEGESDHVVFGGGTKLTVLGQPKANPTVTLFPPSSEELQANKATLVCLISDFYPGAVTVAWKADGSPVKAGVETTKPSKQSNNKYAASSYLSLTPEQWKSHRSYSCQVTHEGSTVEKTVAPTECS | 0.03 | 1280 |
| Ab0429 (antibody, human IgG1, lambda) heavy: not shown light: SYVLTQPPSVSVAPGQTARITCGGSNIGSESVHWYQQKPGQAPVLVVYSASDRPSGIPERFSGSNSGNTATLTISRVEAGDEADYYCQVWEGESDHVVFGGGTKLTVLGQPKANPTVTLFPPSSEELQANKATLVCLISDFYPGAVTVAWKADGSPVKAGVETTKPSKQSNNKYAASSYLSLTPEQWKSHRSYSCQVTHEGSTVEKTVAPTECS | 0.04 | 1290 |
| Ab0430 (antibody, human IgG1, lambda) heavy: not shown light: SYVLTQPPSVSVAPGQTARITCGGSNIGSESVHWYQQKPGQAPVLVVYEESDRPSGIPERFSGSNSGNTATLTISRVEAGDEADYYCQVWEGESDHVVFGGGTKLTVLGQPKANPTVTLFPPSSEELQANKATLVCLISDFYPGAVTVAWKADGSPVKAGVETTKPSKQSNNKYAASSYLSLTPEQWKSHRSYSCQVTHEGSTVEKTVAPTECS | 0.03 | 1100 |
| Ab0423 (antibody, IgG4, V domains shown) VH: QVTLKESGPVLVKPTETLTLTCTVSGFSLNNARVGVSWIRQPPGKALEWLAHIFSNDEKSYSTSLKSRLTISKDTSKSQVVLTMTNMDPVDTATYYCARSVVTGGYYYEGMDVWGQGTTVTVSS VL: SYVLTQPPSVSVAPGQTARITCGGSNIGSESVHWYQQKPGQAPVLVVYSSSDRPSGIPERFSGSNSGNTATLTISRVEAGDEADYYCQVWEGASDHVVFGGGTKLTVLG | 0.05 | 1510 |
| Ab0424 (antibody, IgG4, V domains shown) VH: QVTLKESGPVLVKPTETLTLTCTVSGFSLNNARVGVSWIRQPPGKALEWLAHIFSNDEKSYSTSLKSRLTISKDTSKSQVVLTMTNMDPVDTATYYCARSVVTGGYYYEGMDVWGQGTTVTVSS VL: SYVLTQPPSVSVAPGQTARITCGGSNIGSESVHWYQQKPGQAPVLVVYSSSDRPSGIPERFSGSNSGNTATLTISRVEAGDEADYYCQVWHGASDHVVFGGGTKLTVLG | 0.07 | 1390 |
| Ab0453 (antibody, IgG4, V domains shown) VH: QVTLKESGPVLVKPTETLTLTCTVSGFSLSNARVGVSWIRQPPGKALEWLAHIFSNDEKSYSTSLKSRLTISKDTSKSQVVLTMTNMDPVDTATYYCARSVVTGGYYYEGMDVWGQGTTVTVSS VL: SYVLTQPPSVSVAPGQTARITCGGSNIGSESVHWYQQKPGQAPVLVVYSESDRPSGIPERFSGSNSGNTATLTISRVEAGDEADYYCQVWEGESDHVVFGGGTKLTVLG | 0.03 | 1400 |
| Ab0454 (antibody, IgG4, V domains shown) VH: QVTLKESGPVLVKPTETLTLTCTVSGFSLTNARVGVSWIRQPPGKALEWLAHIFSNDEKSYSTSLKSRLTISKDTSKSQVVLTMTNMDPVDTATYYCARSVVTGGYYYEGMDVWGQGTTVTVSS VL: SYVLTQPPSVSVAPGQTARITCGGSNIGSESVHWYQQKPGQAPVLVVYSESDRPSGIPERFSGSNSGNTATLTISRVEAGDEADYYCQVWEGESDHVVFGGGTKLTVLG | 0.03 | 1390 |
| Ab0455 (antibody, IgG4, V domains shown) VH: QVTLKESGPVLVKPTETLTLTCTVSGFSLSYARVGVSWIRQPPGKALEWLAHIFSNDEKSYSTSLKSRLTISKDTSKSQVVLTMTNMDPVDTATYYCARSVVTGGYYYEGMDVWGQGTTVTVSS VL: SYVLTQPPSVSVAPGQTARITCGGSNIGSESVHWYQQKPGQAPVLVVYSESDRPSGIPERFSGSNSGNTATLTISRVEAGDEADYYCQVWEGESDHVVFGGGTKLTVLG | 0.07 | 1020 |
| Ab0456 (antibody, IgG4, V domains shown) VH: QVTLKESGPVLVKPTETLTLTCTVSGFSLTYARVGVSWIRQPPGKALEWLAHIFSNDEKSYSTSLKSRLTISKDTSKSQVVLTMTNMDPVDTATYYCARSVVTGGYYYEGMDVWGQGTTVTVSS VL: SYVLTQPPSVSVAPGQTARITCGGSNIGSESVHWYQQKPGQAPVLVVYSESDRPSGIPERFSGSNSGNTATLTISRVEAGDEADYYCQVWEGESDHVVFGGGTKLTVLG | 0.07 | 1080 |
| Ab0457 (antibody, IgG4, V domains shown) VH: QVTLKESGPVLVKPTETLTLTCTVSGFSLSNARVGVSWIRQPPGKALEWLAHIFSNDEKSYSTSLKSRLTISKDTSKSQVVLTMTNMDPVDTATYYCARSVVTGGYYYEGMDVWGQGTTVTVSS VL: SYVLTQPPSVSVAPGQTARITCGGSNIGSESVHWYQQKPGQAPVLVVYSASDRPSGIPERFSGSNSGNTATLTISRVEAGDEADYYCQVWEGESDHVVFGGGTKLTVLG | 0.02 | 1520 |
